Measured values: patent publication US20170240920A1 (UCL BUSINESS, published 2017)
No end group written: not given here.

B1: StreptagII-d8-x2 on a GPI anchor (other)
chain: WSHPQFEKSGGGGSPAPRPPTPAPTIASWSHPQFEK
modifications: also: GPI anchor at C-terminal side, attached after further residues not given here
notes: Two copies of the tag separated by a CD8-based linker; expressed on the surface of transfected HEK 293T cells; also called StreptagII GPI (x2); Streptagll-d8-x2; not shown: residues between the second tag and the GPI attachment site
B2: Flankedccstreptag-d8-x2-GPI (other)
chain: ECHPQGPPCIEGRKSSGGGGSPAPRPPTPAPTIASECHPQGPPCIEGRKS
modifications: cysteine pairing not given here; also: GPI anchor at C-terminal side, attached after further residues not given here
notes: Two copies of the tag separated by a CD8-based linker; also called MP13024; Flankedccstreptag GPI (x2); not shown: residues between the second tag and the GPI attachment site

Target: T1, Streptavidin (Streptomyces avidinii, UniProt P22629 37-163, limits assumed)
T1 construct: The same protein was used as APC conjugate (flow cytometry) and on beads (sorting, virus capture); also called Streptavidin-APC; Streptavidin conjugated to Allophycocyanin
Assay: flow cytometry, Streptavidin-APC staining of transfected 293T cells

T1 sequence (P22629 37-163 limits assumed): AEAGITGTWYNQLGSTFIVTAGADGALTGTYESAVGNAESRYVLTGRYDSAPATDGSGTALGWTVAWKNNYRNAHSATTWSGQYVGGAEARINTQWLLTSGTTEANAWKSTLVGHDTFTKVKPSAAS

Row | Binder | binding result
1 | B1 | binds
2 | B2 | binds
